From patent US20210292392A1 (TSB THERAPEUTICS BEIJING, published 2021)

Key:
[1] = target: recombinant RBD of the spike protein of SARS-CoV (SARS-CoV, UniProt P59594 306-527); assay: SPR, RBD on CM5 chip
[2] = target: T1, full length spike of SARS-CoV (SARS-CoV, UniProt P59594 14-1255); assay: FACS, HEK 293T cells expressing the full length spike, anti-human IgG Fc PE
T1 construct: whole, on cells

[3] = target: T2, full length spike of MERS-CoV (MERS-CoV, UniProt K9N5Q8 18-1353); assay: as above
T2 construct: whole, on cells
T2 sequence (K9N5Q8 18-751, chain 1 of 2): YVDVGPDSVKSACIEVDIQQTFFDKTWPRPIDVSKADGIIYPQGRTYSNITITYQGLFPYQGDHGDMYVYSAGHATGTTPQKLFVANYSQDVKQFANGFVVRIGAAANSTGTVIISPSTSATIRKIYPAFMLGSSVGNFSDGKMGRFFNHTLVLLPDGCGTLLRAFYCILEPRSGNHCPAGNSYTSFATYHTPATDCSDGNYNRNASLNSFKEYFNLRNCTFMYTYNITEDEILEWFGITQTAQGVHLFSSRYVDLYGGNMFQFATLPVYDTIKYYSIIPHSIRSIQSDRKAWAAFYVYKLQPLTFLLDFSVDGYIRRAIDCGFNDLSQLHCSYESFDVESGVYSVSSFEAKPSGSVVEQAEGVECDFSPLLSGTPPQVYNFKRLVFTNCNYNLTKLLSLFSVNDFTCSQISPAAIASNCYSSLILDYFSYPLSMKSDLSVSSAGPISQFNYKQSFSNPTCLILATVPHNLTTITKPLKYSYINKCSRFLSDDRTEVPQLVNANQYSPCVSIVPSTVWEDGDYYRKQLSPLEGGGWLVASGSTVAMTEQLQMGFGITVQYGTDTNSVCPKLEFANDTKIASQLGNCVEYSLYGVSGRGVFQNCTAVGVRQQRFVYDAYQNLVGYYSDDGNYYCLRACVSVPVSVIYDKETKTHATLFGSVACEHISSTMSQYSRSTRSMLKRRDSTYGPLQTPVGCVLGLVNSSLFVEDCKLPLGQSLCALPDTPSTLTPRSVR
T2 sequence (K9N5Q8 752-1353, chain 2 of 2): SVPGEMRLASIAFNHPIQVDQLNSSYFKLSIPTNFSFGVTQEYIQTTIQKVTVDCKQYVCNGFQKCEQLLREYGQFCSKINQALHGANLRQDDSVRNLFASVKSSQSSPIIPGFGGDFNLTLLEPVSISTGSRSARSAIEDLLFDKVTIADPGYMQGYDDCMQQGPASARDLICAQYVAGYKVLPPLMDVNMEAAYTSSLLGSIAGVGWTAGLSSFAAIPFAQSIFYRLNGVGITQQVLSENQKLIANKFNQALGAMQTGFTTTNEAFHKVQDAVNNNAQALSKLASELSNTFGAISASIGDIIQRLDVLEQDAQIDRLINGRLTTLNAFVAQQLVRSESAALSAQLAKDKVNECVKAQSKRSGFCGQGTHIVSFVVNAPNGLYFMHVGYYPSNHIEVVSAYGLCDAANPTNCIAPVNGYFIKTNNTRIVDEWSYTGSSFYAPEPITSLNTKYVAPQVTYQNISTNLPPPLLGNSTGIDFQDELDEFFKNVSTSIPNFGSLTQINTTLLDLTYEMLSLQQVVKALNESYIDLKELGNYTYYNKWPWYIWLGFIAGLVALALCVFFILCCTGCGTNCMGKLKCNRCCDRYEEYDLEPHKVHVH

B1: P1A-1C10 (antibody, V domains shown)
VH: QVQLVQSGAEVKNPGSSVKVSCKAGGGTSSFYDINWVRQAPGQGLEWIGKIIPRLDIADYAQKSQGRVTITADKSTSTVYLELSSLKSDDTAVYFCARGRPGSEWAYGPFDLWGQGTLVTVSS
VL: DIQMTQSPSTLSASVGDRVTITCRASQSSRAWLAWYQQKPGKAPKLLISKASSLESGVPSRFSGSGYGTEFTLTISSLQPDDSATYYCHQYNSSPFTFGPGTKVQIKR
notes: human IgG1, kappa
[1]
  binding result: no binding (tested: not printed)
[2]
  binding result: no binding (tested: 20 µg/ml)
[3]
  binding result: no binding (tested: 20 µg/ml)
